Assay: soluble on expression in E. coli; label from the status in PepcDB or PDB records

Sequence	soluble on expression in E. coli
MQVIRKPTRMLSGVTIVSIMTHPHSCPHGKCVFCPGGVDVDTPQSYYGREPTLMRAIENDYDPFHQVQSRLRQYVENGHTPSKVELIIMGGTFLSLPIDYQDWFVTYALEAMNRFPSYDKPSFVYLEDAQVKNEKAEVRCVGMTIETKPDWAKEWHADQMLRLGATKVELGVQTVYDDILKFTNRGHTVKDSIESTRILKDSGFKVVYHVMLGLPKSDPDKDLEAFKTIFSDPNFRPDMLKIYPTLVVETAPLANLWRRGLYKPYGTETLIELISEMYRYIPKWVRVMRIQRDIPANVILDGNKKGNLRELVEKKVLEKGIKINEIRFREVGMMWQHRGLLPDHTKIHLYKEVYEASEGTEIFLSFEDEKEILIGYLRLRITSNKAHRKEIDGKTAIVRELHVYGIEVPIGSWDELGFQHRGYGSKLLSEAEKIAREEFDMRKISVLSGIGAREYYAKRGYVKEGPYMSKQLI	not soluble
MENDLKKLTKEIVGRLKNKSVKELLSYAIFNEEEEAKFYADLAEKVSRPSVKALFRRMSEESKVHELLLRKLFSKYFPGEEPVKVDVPPVEVVPFISKFESIEDYLEGLRYCMESELFAKRTYVLLSQVAENEGVRMVANELASIEQNHYEEIKAVYELVKTFRDREMLPESLKSGAYLITNESVGKYLILDLIDENKKLKLFVRENPEIFRRLIGENPNVEITWIAKVNAPNTISPTETHVLKKDIESFFEKVTKEGKKGVVFIQNVAYLVANLGFKETVDLLLHAKDLAVYYGGYLIITANPEVFEKTEWALLKLEFEVLF	not soluble
MSKYGCPTSDTDPNSVTMITKRGPVNKTLKSAAQLNAAQRAGVDISTEKKTMSGGNRQHSANKNTLRLDEETEELHHQKVALSLGKVMQQARATKGWTQKDLSTQINEKPQVVGEYESGKAVPNQQIMAKMERALGVKLRGKDIGMPFSTKPPAKK	not soluble
LLRMHESLARRQLAEVERLDLVRQVRELIGELLVDGGATLEQVAARLGMPARRLRERLAMAGVRFNDLVTDYRCRLAKE	not soluble
MPKETFYNLSEEKRQRIINSAEKEFFRVPLSKASIANIVTGAQIPRGSFYQYFDDLNDLYHYFFEKKFQGFHENFKKELENHQGDLIEAWRQVAKKVLRRIVNSENSIFFENAIFGLNIQRDQNIIDSFANFHHPENKAPEYFDEIDFSFLKIKSKKDLITLRHIMSGIIIQAATAYFSKCDSGQKVDLEEILEGIDKQIDWLKYGVYKEKEHD	not soluble
MSLESVQNYEAKSAHAHQAFFLKFEELKEVSKEQPRLEAEYPANTTKNYDHSRVRLTQLEGEPHSDYINANLVPGYTRPQEFIASQGPLKKTLENFWRLVREQQVRIIIMPTISMENGRVLCEHYWLTDSTPDTHGHITIHLLAEEPEDEWTKREFQLQHLLRGCPCGVGMGRTGTFVALSRLLQQLEEEQMVDVFHAVYALRMHQPLMIQTLSQYVFLHSCLLNKILEGPFNISESWPISVTDLPQACAKRAASANAGFLKEYEAIKDEAGFSAPPPGYEQDSPVSYDRSQGQFSPVEESPPDDMPEAWLFPGGPSGRDHTVLTGPAGPKELWELVWQHRAHVLVSLCPPNVMEKGESRKEREVQRLQFPYLEPGHELPATTLLPFLAAVGQCCSRGNNKKPGTLLSHSKCCWTMVSCSKGATQLGTFLAMEQLLQQAGSECTVDIFNVALQQSQACGLMTPTLITQQCLLLSDCTAPPPTEGHHHHHH	not soluble
MTVVIGVLALQGAFIEHVRHVEKCIVENRDFYEKKLSVMTVKDKNQLAQCDALIIPGGESTAMSLIAERTGFYDDLYAFVNPSKVTWGTCAGLIYISQQLSNEAKLVKTLNLLKVKVKRNAFGRQAQSSTRICDFSNFIPHCNDFPATFIRAPVIEEVLDPEHVQVLYKLDGKDNGGQELIVAAKQKNNILATSFHPELAENDIRFHDWFIREFVLKNYSK	not soluble
KGGWFGKHRGQGGSNPKFENIAEGLRALLARSHVERTTDEGTWVAGVFVYGGSKTSLYNLRRGTALAIPQCRLTPLSRLPFGMAPGPGPQPGPLRESIVCYFMVFLQTHIFAEVLKDAIKDLVMTKPAPTCNIRVTVCSFDDGVDLP	soluble
MGSDKIHHHHHHMSIPLAFIICTEPGRLESQSLMLASSIRKFCGNLKDTPIYSFHPRVGEPISHQTQEAFAALQVIHQQIPINQEFHEYYLANKPLVCAYAEQNIDAEILVFLDSDKCLFAEPTEFLLPENCNVRVRPEYGQGIGSTGSQDPQEWYWQRLYQVLGVKREIFVNTPIGNKRIRAYWNSGLVAVRRSAGIFTAWKENFTKVMHLDITPPQGIYFVEQSVLSVTLCALVDNIEHFSLNYSYPLPLHNRLSPELRLQDWDDITSIHYFNLFFYNDWNTQIKKLKKFNITSDKYKWLSQEVVRLNMSRTSVLHRYMLAIRRIEQKLQKFNIKINLSSLIEKTAKF	not soluble
MGAAKPIFVEHSIVIDRPAQQVYDYWRKLENLPQIMSHLESVTVLDDKRSRWVAKAPLGTHVEWEAEVVNDKPGERIGWHSLPGATVDNAGSVQFESLPDDKTRVHVALSYRPPAGPLGAAVAKLFGEEPSQQIAEDLQKFKATFEGLEHHHHHH	not soluble
MGSDKIHHHHHHMTLATMKLQILSDLHIDSYVRQSHPIGHIPKTDADIVLVAGDTANSDIGMPWLQEQAARLQVPLITIAGNHEYFNEDVLHFDKKLATWDNYDSESKQGVQFLQCQYIDIGEVRILGCTLWTDYQYQANEDTMVAALRFMRDYKQIYAGSELFSPEVSMQIHAKQRQWLKQALITAKALGKKTVVMSHHSISPLSVSEKYANLPSNAAFVSDLSQWMYEDWAPALWVHGHTHEAFDYHIHKTRVIVNPRAYPNEVSSTALAFAWDRVIDIG	not soluble
MRYEIADNYYAFWFRFVYPNRKLVERELYKEALELVKRDYNHYMGRVFEKASLDFLWKRFAFERAGRWWSREEEIDVVGVKRGMAYFFEVKWKDLSEREARRSLEHHHHHH	not soluble
MAHHHHHHMLRRLVSCASPLRLRGCGAAVVLGNGRFASTANASAAPPITTTKAPTYGTVPDIPNLNFLSSPDNLLNTVDGTVDVCEALLKEIPKAKTPQAKHDLIDSTSNVLCLLLDPCEFVRQIHPDENYKRGASLAFQKGYEYMCEVNSRRDLYDVIKELDSQEGRKGLTPESSRTLCS	not soluble
MKIVIIGGFLGGGKTTVLNHLLAESLKESLKPAVIMNEFGKMSVDGALVSEDIPLSELTEGCICCAMKADVSEQLHQLYLKEQPDIVFIECSGIAEPVSVLDACLTPILAPFTTITHMIGVIDASMYKHIKSFPKDIQGLFYEQLAYCSVLFVNKIDSADVETTSKLLKDLEVINPEADIQVGMHGSVTLPISVRQMTATSDNKHESLHKTINHQFVQSPVTCTKAEFIKRLACLPSHIYRLKGFMTFEDTTHTYLIQFTQGQYELTPVAFSKKVPEYLVLIGKGISKEDYQCLEQLEHHHHHH	not soluble
MASTPRIVIIGAGIVGTNLADELVTRGWNNITVLDQGPLNMPGGSTSHAPGLVFQTNPSKTMASFAKYTVEKLLSLTEDGVSCFNQVGGLEVATTETRLADLKRKLGYAAAWGIEGRLLSPAECQELYPLLDGENILGGLHVPSDGLASAARAVQLLIKRTESAGVTYRGSTTVTGIEQSGGRVTGVQTADGVIPADIVVSCAGFWGAKIGAMIGMAVPLLPLAHQYVKTTPVPAQQGRNDQPNGARLPILRHQDQDLYYREHGDRYGIGSYAHRPMPVDVDTLGAYAPETVSEHHMPSRLDFTLEDFLPAWEATKQLLPALADSEIEDGFNGIFSFTPDGGPLLGESKELDGFYVAEAVWVTHSAGVAKAMAELLTTGRSETDLGECDITRFEDVQLTPEYVSETSQQNFVEIYDVLHPLQPRLSPRNLRVSPFHARHKELGAFFLEAGGWERPYWFEANAALLKEMPAEWLPPARDAWSGMFSSPIAAAEAWKTRTAVAMYDMTPLKRLEVSGPGALKLLQELTTADLAKKPGAVTYTLLLDHAGGVRSDITVARLSEDTFQLGANGNIDTAYFERAARHQTQSGSATDWVQVRDTTGGTCCIGLWGPLARDLVSKVSDDDFTNDGLKYFRAKNVVIGGIPVTAMRLSYVGELGWELYTSADNGQRLWDALWQAGQPFGVIAAGRAAFSSLRLEKGYRSWGTDMTTEHDPFEAGLGFAVKMAKESFIGKGALEGRTEEASARRLRCLTIDDGRSIVLGKEPVFYKEQAVGYVTSAAYGYTVAKPIAYSYLPGTVSVGDSVDIEYFGRRITATVTEDPLYDPKMTRLRG	soluble
MGSDKIHHHHHHMRKPKITVIGGGTGSPVILKSLREKDVEIAAIVTVADDGGSSGELRKNMQQLTPPGDLRNVLVAMSDMPKFYEKVFQYRFSEDAGAFAGHPLGNLIIAGLSEMQGSTYNAMQLLSKFFHTTGKIYPSSDHPLTLHAVFQDGTEVAGESHIVDHRGIIDNVYVTNALNDDTPLASRRVVQTILESDMIVLGPGSLFTSILPNIVIKEIGRALLETKAEIAYVCNIMTQRGETEHFTDSDHVEVLHRHLGRPFIDTVLVNIEKVPQEYMNSNRFDEYLVQVEHDFVGLCKQVSRVISSNFLRLENGGAFHDGDLIVDELMRIIQVKK	not soluble
MRWKRTLQLLDVHCEGEIGRVVTGGAPKIPGNTVAEQLHWMNTDPQGEALRRFLTLEPRGTPMGSVDLLLPPKHPDAHAAFVILQPDQAHASSGSNSICATTALLESGMVEMQEPETVIILETAAGLVKATATCRDGRCEKVKLTMVPSFVHELDVSIDTPEWGRVTMDISYGGIFYALVDVRQIGLTIEKANAAKLVAAGMTLKDLVNREMTVVHPEIPAISGVAYVMFRDVDADGSIRTCTTMWPGRADRSPCGTGNSANLATLYARGKVKVGDEYKSRSIIGSEFDVGLSAVTEVAGRPAVIPTIAGRGFTFGLHQVGLDPFDPLGDGFAMTDVWGPEAGNI	not soluble
GRKQEPFENVTLDVEEQHQGSVMQALGERKGDLKNMNPDGKGRVRLDYVIPSRGLIGFRSEFMTMTSGTGLLYSTFSHYDDVRPGEVGQRNNGVLISNGQGKAVAFALFGLQDRGKLFLGHGAEVYEGQI	not soluble
MGSDKIHHHHHHVATYNERLFDGKSFRSKLHYARYLWVNSWIKRWELPSYSMLELGCYDGKTIDFLSNKPATYAGYDANWEGGLDIAKTKWSMHPDYSFHTCEKPADFSADDSMYEVSVCLETLEHIPAADLEAYIVQLSKKTKQYCLVSVPNEKGPVLFFKHIIKSITQEKAQTEAYTLKEFLYGSIGRLDKVARRDCGHKGFDYDALAVLLKKYFTILKTEAIPYPAIPHALGFNVGFILKKN	not soluble
MTSVLDPDRALEDEAKDKFGFVGIAKQLAPPIIEAAKGEGMVIGLEGRWGSGKTSLLNFLRAELQASKKSGIHTITIAPWLNGDTSSLVLSLLEPMAAVLKQKEDELAESYGEGQSATKERVAEVGRLLRAYGPKTARRIASLANVAGYVLPGAQAIGGALAASASAADEIFDVGPTPSELKQELAVKIQELNVGFIVILDDLDRLEPEQAVEVVRLVRSVADFPKVVYLMCYDREVLSEALKTGLKVSDGDLFLQKIVQLTFNIPLPEPFDLRTQFRNEAKAIYFEATGVDLDGAILHDLTYAVDREGMGLSTPREVKLALNSIRFVFSQVKDDVYFPDLCRLHLIKTTNYKLYKWLEIYLSVRSVLVTGDATVSEDEKTKMGEELKMLLPASGPGSVHSIWSLARFIPGVVDTEKVSERVFNAINSSAISEAVRLKRLGSPLHYRFYFALTGPKTVMPDEDFNAILELARNDIDQLESRLAAETMKRRDSGRTWFEHVLDRLDDDCISSLDESQLSGILHALSGMMDIAMKEDGEVRSFALSLDGIANIVAKRCLVRLRELNPEKQANTVRSMAQDGKAINWLVGKFFRSQLFNHGKVGERAERPEQWEISEDLLDDIIEILRKRLSEQDIKNLIPNLPNVSAYLYGWMNLTDDDQAKNWVQEYSESDEGFLDILNHLRGWAMSDKVYYPLSEKTVSSFLDWNEVKTRLDGMQLEHHHHHH	not soluble
